To fix the notation:
B1: Twister Ribozyme (parent)
chain: AACACUGCCAAUGCCGGUCCCAAGCCCGGAUAAAAGUGGAGGGGGCGG

The series covers variants of B1. Nature of the series: self-cleavage, relative activity (ratio to wild type); higher = more cleavage; co-transcriptional.
CACACUGCCAAUGCCGGUCCCAAGCCCGGAUAAAAUUGGAGGGGGCGG [A1C G36U]: the self-cleavage amounted to 0.173.

For AACACUGCCAAUGCCGGGCCCAAGCCCGGAUAAAAGUGGAGGGGGCUG [U18G G47U], the self-cleavage was found to be 0.0478.

Take AACACUGCCAAUGCCGGUCCCAGCCCCGGAUAAAAGUGGAGGGGGCGG [A23G G24C]: the self-cleavage turned out to be 0.0875. Regarding AACACUGCCAAUGCCGGUCCCAACCCCGGAUAAAAGUGGGGGGGGCGG [G24C A40G], the self-cleavage came to 0.0575.

For AACACUGCCAAUGCCGGUCCCAAGCCCGGAUCAAAGAGGAGGGGGCGG [A32C U37A], the self-cleavage worked out at 0.732. Turning to AACACUGCCAAUGCCGGUCCCAAGCCCGGAUAAACGAGGAGGGGGCGG [A35C U37A], the self-cleavage is 0.702. On to AACACUGCCAAUGCCGCUCCCAAGCCCGGAUAAAAGUGGACGGGGCGG [G17C G41C], for which the self-cleavage was 0.104. On to AACACUGCCAAUGCCGGUCCCAAGCCCGGAUAAAAGAGGAGGGGCCGG [U37A G45C], for which the self-cleavage is 0.323. In the case of AACACUACCAAUGCCGGUCCCAAGCCCGGAUAAAAGUGGAGGGGGGGG [G7A C46G], the self-cleavage was 0.414.

Consider AACACUGCCAAUGCCGGUCCCAAGCCCGGAUAAAAGUAGAGGGGACGG [G38A G45A], for which the self-cleavage came to 0.797. Regarding AACACAGCCAACGCCGGUCCCAAGCCCGGAUAAAAGUGGAGGGGGCGG [U6A U12C], the self-cleavage amounted to 1.11. AACACUGCCAAUGCCGGGCGCAAGCCCGGAUAAAAGUGGAGGGGGCGG [U18G C20G]: the self-cleavage was determined as 0.069. The result for AACACUGCCAAUGCCGAUCCCAAGCCCGGAUAAAAGUAGAGGGGGCGG [G17A G38A] reads 0.498; that for AGCACAGCCAAUGCCGGUCCCAAGCCCGGAUAAAAGUGGAGGGGGCGG [A2G U6A], 0.192.

As for AACACUGCCAAUGCCGGUCCCAAGCCCGGAUAAAAGUGGAGGGCGUGG [G44C C46U], the self-cleavage was 0.732.

For AACACUGCCAAUGCCGGUCCCAAGCGCGGAUAAAAGUGGAGGCGGCGG [C26G G43C], the self-cleavage was 0.141.

Turning to AACACUGCCAAUGCCGGUCCCAAGCCCAGAUAAGAGUGGAGGGGGCGG [G28A A34G], the self-cleavage was determined as 0.606. The result for AACACGGCCAAUGCCGGUCCCAGGCCCGGAUAAAAGUGGAGGGGGCGG [U6G A23G] reads 0.0873; that for AACACCGCCAACGCCGGUCCCAAGCCCGGAUAAAAGUGGAGGGGGCGG [U6C U12C], 0.613. Under AACUCUGCCAAUGGCGGUCCCAAGCCCGGAUAAAAGUGGAGGGGGCGG [A4U C14G] stands 0.0594; under AACACUGCCAAUGCCGGUCCCAAGCCCGGAUAAGAGUGAAGGGGGCGG [A34G G39A], 0.133. For the variant AACACUGCCAAUGCCGGUCCCAAACCCGGAUAAAAGCGGAGGGGGCGG [G24A U37C], the self-cleavage was 0.067. For the variant AACACUGCCAAUGCCGGUCCCAAACCCGGAUAAAAGGGGAGGGGGCGG [G24A U37G], the self-cleavage worked out at 0.0506. In the case of AACACUGCCAAUGCCGGGCCCAAGCCCGGAUAAAAGUGGAAGGGGCGG [U18G G41A], the self-cleavage came to 0.0588.

On to AACACUGCCAAUGGCGGUCCAAAGCCCGGAUAAAAGUGGAGGGGGCGG [C14G C21A], for which the self-cleavage is 0.0482.

Take AACACUCCCAAUGCCGGUCCAAAGCCCGGAUAAAAGUGGAGGGGGCGG [G7C C21A]: the self-cleavage stood at 0.0462. The result for AACACUGCCAAUGCCGGUCCCAAGCACGUAUAAAAGUGGAGGGGGCGG [C26A G29U] reads 0.214; that for AACACUGCCAAUGCCGGUCCCAAUCCCGGAUAAAGGUGGAGGGGGCGG [G24U A35G], 0.0925; that for AACACUGCCAAAGCCGGUCCCAAGCCCGGAUAAAAGUGGAGGGGCCGG [U12A G45C], 0.643.

In the case of AACACUGCCAAUGCCCGUCCCAAGCCCGGAUAAAAGUGGAGGGGGCCG [G16C G47C], the self-cleavage amounted to 0.268.

Turning to AACACUGCCAAUGCCGGUCCCAAGCACGGAUAAAAGUGGAGCGGGCGG [C26A G42C], the self-cleavage was 0.131. Turning to AACACUGCCAAUGCCGGUCCCAAGCCCAGCUAAAAGUGGAGGGGGCGG [G28A A30C], the self-cleavage came to 0.935. Take AACACUGCCAAUGCCGGUGCCAAGCCCGGAUAAAAAUGGAGGGGGCGG [C19G G36A]: the self-cleavage came to 0.101. In the case of AACACUGCCAAUGCCGGUCCCAAGCCAGGAUAAAAGUGGAGGGGGUGG [C27A C46U], the self-cleavage was determined as 0.639.

AACACUGCCAAUGGCGGUCCCAAGCCCGGAUAAAAGUGGAAGGGGCGG [C14G G41A]: the self-cleavage came to 0.103. The result for AACCCUGCCAAUGCUGGUCCCAAGCCCGGAUAAAAGUGGAGGGGGCGG [A4C C15U] reads 0.271. As to AACACUGCCAAUGCCGGUCCCAGGCCCGGAUAAAGGUGGAGGGGGCGG [A23G A35G], the self-cleavage came out at 0.188.

As to AACACUGCCAAUGCCGGUCCCAAACCCGGAUAAAAGUGGAAGGGGCGG [G24A G41A], the self-cleavage was determined as 0.0508. Turning to GACACUGCCAAUGCCGGUCCCAAGCCCGGGUAAAAGUGGAGGGGGCGG [A1G A30G], the self-cleavage came to 0.376.

Consider AACACUGCCAAUGCGGGUCCCAAGCCCGGAUAAAAGUGGACGGGGCGG [C15G G41C], for which the self-cleavage turned out to be 0.0823. Regarding AUCACUGCCAAUGCCGGUCCCAAGCCCGGAUAAAAGUCGAGGGGGCGG [A2U G38C], the self-cleavage amounted to 0.252. Take AACACUGCGAAUGCCGGUCCCAAGCCCCGAUAAAAGUGGAGGGGGCGG [C9G G28C]: the self-cleavage was 0.495. Turning to AACACUGCCAAUGCCGGUCCCAAGCCCGGAUAAAGGUGGAGGGCGCGG [A35G G44C], the self-cleavage amounted to 0.821. For AACACUUACAAUGCCGGUCCCAAGCCCGGAUAAAAGUGGAGGGGGCGG [G7U C8A], the self-cleavage is 0.0463. As for AACACUGCCAAUGCCGCUCACAAGCCCGGAUAAAAGUGGAGGGGGCGG [G17C C20A], the self-cleavage came out at 0.0695.

For the variant AACACUGCGAAUGCCUGUCCCAAGCCCGGAUAAAAGUGGAGGGGGCGG [C9G G16U], the self-cleavage turned out to be 0.346. In the case of AACAGUGCCAAUGCCGGUCCCAAGACCGGAUAAAAGUGGAGGGGGCGG [C5G C25A], the self-cleavage came out at 0.0988. With AACACUGCCAAUGCCGGUCCCAAGCCCGGAUAAAAGUGGCGGGGGUGG [A40C C46U], the self-cleavage turned out to be 0.236. Consider AAUACUGCCACUGCCGGUCCCAAGCCCGGAUAAAAGUGGAGGGGGCGG [C3U A11C], for which the self-cleavage was 0.191. For AACACUGCCAGUGCCGGUCCGAAGCCCGGAUAAAAGUGGAGGGGGCGG [A11G C21G], the self-cleavage is 0.0655. AACACUGCCAAUACCGGUCCCAAGCCCGGAUAAAAGUGGAGGGGUCGG [G13A G45U]: the self-cleavage is 0.539.

With AACACUGCCAAUGCCGGUACCCAGCCCGGAUAAAAGUGGAGGGGGCGG [C19A A22C], the self-cleavage came to 0.127.

On to AACACUGCCAAUGCCGGUCCCAAGCCGGGAUAAAAGUGGAGGGGGCGG [C27G], for which the self-cleavage turned out to be 0.0872.

Regarding AACACUGCCAGUGCCGGUCCCAAGCCCGGAUAAAAGUGGAGGGGGUGG [A11G C46U], the self-cleavage stood at 0.943.

The values above are taken from the RNAGym collection of RNA variant scans (doi:10.7554/elife.80360).
